According to article PMC5825156:

Molecular target: SIMx4 probe (fragment of Ring Finger Protein 4 comprising four SIMs) (Rattus norvegicus) (UniProt O88846)
Test: pull-down; lysate of E. coli expressing HA-TbSUMO chains or monomer incubated with His-tagged SIMx4 or mutSIMx4 probe, 50 mM Tris HCl pH 7.6, 150 mM NaCl, 1% NP40, 0.5% deoxycholate, 1.5 h at 4°C; captured on Ni^+2-resin, washed with 250 mM NaCl, eluted with imidazole; Western blot anti-HA, three replicates

Chain of UniProt O88846 (O88846 32-132): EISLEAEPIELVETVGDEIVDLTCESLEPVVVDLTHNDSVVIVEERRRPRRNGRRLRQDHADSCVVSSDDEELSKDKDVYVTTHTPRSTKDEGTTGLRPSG

HA-TbSUMO chains (poly-SUMO chains of Trypanosoma brucei SUMO made by in bacteria SUMOylation)
fold pulled down against the mutSIMx4 probe or beads alone: > 3 fold
